Reference: patent US6268347A, “Prosaposin-derived peptides” (Regents of the University of CA, priority 1999, dated 2001)
Where a SMILES comes first, the peptide text is derived from it. [ ]: non-standard residue; d: D form.

Columns and labels:
Chung model rats = assay: Tactile allodynia (von Frey 50% paw withdrawal threshold) in Chung model rats; assay type: in vivo, rat; details: any concentration tested, intrathecal
Protocol: The surgical procedure previously described by Kim and Chung, supra, 1992, was performed on male Sprague-Dawley rats weighing 120 to 150 grams to induce an allodynic state. Briefly, the rats were anesthetized with halothane; subsequently, the left L-5 and L-6 spinal nerves were isolated adjacent to the vertebral column and ligated with 6.0 silk suture distal to the dorsal root ganglion. After a ten to fourteen day post operative recovery period, a spinal catheter was introduced. Five days following the second surgery, intrathecal drug administration was accomplished using a gear driven micro-injection syringe connected to a spinal catheter inserted through the foramen magnum. Prior to testing, the rats were placed in clear plastic wire meshed cages and allowed to accommodate.
To assess the 50% mechanical threshold for paw withdrawal, a von Frey hair was applied to the hind foot avoiding the foot pad. Each of the von Frey hairs, which are calibrated to bend at increasing log forces, were pressed perpendicularly to the foot with sufficient force to cause slight bending for a duration of approximately six to eight seconds. A positive response was noted if the foot was sharply withdrawn. […] The X-axis indicates the time after the injection at which point the hypersensitivity to pressure on the foot pad was measured.

[1] = tested on: choline acetyltransferase activity; details: cited from earlier work
neuroblastoma cells = details: cited from earlier work
neurite outgrowth = details: cited from earlier work

Row | Molecule | side effects such as sedation (Chung model rats) | choline acetyltransferase activity [1] | cell death in neuroblastoma cells (neuroblastoma cells) | neurite outgrowth (neurite outgrowth)
1 | CC[C@H](C)[C@H](NC(=O)[C@H](CCC(=O)O)NC(=O)[C@H](CCCCN)NC(=O)[C@H](CCC(=O)O)NC(=O)[C@@H](NC(=O)[C@H](CCCCN)NC(=O)[C@H](CC(N)=O)NC(=O)[C@H](CC(N)=O)NC(=O)[C@H](CC(=O)O)NC(=O)[C@@H](NC(=O)[C@H](CC(C)C)NC(=O)[C@H](CCCCN)NC(=O)[C@@H](NC(=O)[C@@H](NC(=O)[C@H](CCC(=O)O)NC(=O)[C@H](CCCCN)NC(=O)[C@@H](NC(=O)[C@H](CC(C)C)NC(=O)[C@H](Cc1ccccc1)NC(=O)[C@H](CCC(=O)O)NC(=O)[C@@H](N)CS)C(C)C)C(C)C)[C@@H](C)O)[C@@H](C)CC)[C@@H](C)O)C(=O)N[C@@H](CC(C)C)C(=O)O [SEQ ID NO: 1] (H-CEFLVKEVTKLIDNNKTEKEIL-OH) | No significant side effects such as sedation were observed |  |  | 
2 | CC[C@H](C)[C@H](NC(=O)[C@H](CCC(=O)O)NC(=O)[C@H](CCC(=O)O)NC(=O)[C@@H](NC(=O)[C@H](C)NC(=O)[C@H](CC(N)=O)NC(=O)[C@H](CC(N)=O)NC(=O)[C@H](CC(=O)O)NC(=O)[C@@H](NC(=O)[C@H](CC(C)C)NC(=O)[C@@H](C)NC(=O)[C@@H](N)[C@@H](C)O)[C@@H](C)CC)[C@@H](C)O)C(=O)N[C@@H](CC(C)C)C(=O)N[C@@H](Cc1ccc(O)cc1)C(=O)O [SEQ ID NO: 2, TXLIDNNATEEILY] (H-T[dA]LIDNNATEEILY-OH) | No side effects were observed |  |  | 
3 | Prosaposin: 517 amino acid protein, precursor of four sphingolipid activator proteins (saposins A, B, C, D) (protein, UniProt P07602 1-524, looked up, full-length) MYALFLLASLLGAALAGPVLGLKECTRGSAVWCQNVKTASDCGAVKHCLQTVWNKPTVKSLPCDICKDVVTAAGDMLKDNATEEEILVYLEKTCDWLPKPNMSASCKEIVDSYLPVILDIIKGEMSRPGEVCSALNLCESLQKHLAELNHQKQLESNKIPELDMTEVVAPFMANIPLLLYPQDGPRSKPQPKDNGDVCQDCIQMVTDIQTAVRTNSTFVQALVEHVKEECDRLGPGMADICKNYISQYSEIAIQMMMHMQPKEICALVGFCDEVKEMPMQTLVPAKVASKNVIPALELVEPIKKHEVPAKSDVYCEVCEFLVKEVTKLIDNNKTEKEILDAFDKMCSKLPKSLSEECQEVVDTYGSSILSILLEEVSPELVCSMLHLCSGTRLPALTVHVTQPKDGGFCEVCKKLVGYLDRNLEKNSTKQEILAALEKGCSFLPDPYQKQCDQFVAEYEPVLIEILVEVMDPSFVCLKIGACPSAHKPLLGTEKCIWGPSYWCQNTETAAQCNAVEHCKRHVWN |  | increases choline acetyltransferase activity | prevents cell death | stimulates motor neurite outgrowth in vitro and in vivo
